Inhibition of ERK phosphorylation induced by 1 nM wild type FGF1 in NIH3T3 cells (Western blot against phosphoERK) and Kd data for 2 substances are collected here from patent publication US20220023385A1.

By Kd is commonly meant a measure of binding affinity in units of concentration.

The target in experiment [1] is FGFRs expressed on NIH3T3 cells. In words: cell-based or functional assay.
Experiment [2] has the same target. In words: equilibrium titration of His-tagged FGF1 on FGFR-expressing NIH3T3 cells at 4 °C, flow cytometry with anti-His antibody. A general note: Flow cytometry measures light scatter and fluorescence of single cells or particles in a stream.

As for “FGF1 L131R mutant, recombinant soluble, His-tagged (from UniProt P14210 16-155) (ligand)”, in experiment [1], the inhibition of ERK phosphorylation induced by 1 nM wild type FGF1 in NIH3T3 cells (Western blot against phosphoERK) came out at 1 nM.
For the substance “recombinant soluble wild-type FGF1 with N-terminal 6x His tag (from UniProt P14210 16-155) (ligand)”, the dissociation constant (Kd) in experiment [2] came to 10 nM.
